Laboratory results as given in paper PMC2997501, “Different Residues on the Surface of the Methanothermobacter thermautotrophicus MCM Helicase Interact with Single- and Double-Stranded DNA” (Archaea, 2010).
Substitutions are numbered along the chain they refer to. In names and notes the source's numbering stands.

T1: MCM Q176A (Methanothermobacter thermautotrophicus, UniProt O27798 1-666, Q176A)
T1 sequence: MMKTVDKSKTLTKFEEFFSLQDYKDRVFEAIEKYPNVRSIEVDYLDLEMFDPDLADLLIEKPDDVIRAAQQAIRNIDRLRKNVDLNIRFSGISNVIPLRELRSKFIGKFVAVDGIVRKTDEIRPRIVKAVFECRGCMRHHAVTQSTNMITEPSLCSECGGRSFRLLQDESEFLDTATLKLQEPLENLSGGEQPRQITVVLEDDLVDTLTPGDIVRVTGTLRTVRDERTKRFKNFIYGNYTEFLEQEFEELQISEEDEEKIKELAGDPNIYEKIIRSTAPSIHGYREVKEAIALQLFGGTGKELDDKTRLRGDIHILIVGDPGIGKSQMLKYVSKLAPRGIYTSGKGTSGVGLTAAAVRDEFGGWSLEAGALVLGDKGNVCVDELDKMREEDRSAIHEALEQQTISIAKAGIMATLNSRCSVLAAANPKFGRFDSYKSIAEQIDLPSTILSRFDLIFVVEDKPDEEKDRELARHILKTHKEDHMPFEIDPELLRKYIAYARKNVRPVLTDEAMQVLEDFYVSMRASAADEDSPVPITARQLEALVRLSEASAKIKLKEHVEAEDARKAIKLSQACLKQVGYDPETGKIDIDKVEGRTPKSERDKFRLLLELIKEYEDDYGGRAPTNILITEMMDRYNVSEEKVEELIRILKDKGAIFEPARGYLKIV

T2: MCM P210G (Methanothermobacter thermautotrophicus, UniProt O27798 1-666, P210G)
T2 sequence: T1 sequence with A176Q, P210G

T3: MCM G218A (Methanothermobacter thermautotrophicus, UniProt O27798 1-666, G218A)
T3 sequence: T1 sequence with A176Q, G218A

T4: MCM G211A (Methanothermobacter thermautotrophicus, UniProt O27798 1-666, G211A)
T4 sequence: T1 sequence with A176Q, G211A

B1: Methanothermobacter thermautotrophicus MCM protein, G211A mutant (enzyme, UniProt O27798 1-666, looked up)
chain: T1 sequence with A176Q, G211A
notes: MCM helicase of Methanothermobacter thermautotrophicus, derivative of the full-length enzyme; source: E. coli DE3 codon plus cells, purified on a Ni-column
B2: Methanothermobacter thermautotrophicus MCM protein, PG210,211GA double mutant (enzyme, UniProt O27798 1-666, looked up)
chain: T1 sequence with A176Q, P210G, G211A
notes: as for B1
B3: Methanothermobacter thermautotrophicus MCM protein, D212N mutant (enzyme, UniProt O27798 1-666, looked up)
chain: T1 sequence with A176Q, D212N
notes: as for B1
B4: Methanothermobacter thermautotrophicus MCM protein, G218A mutant (enzyme, UniProt O27798 1-666, looked up)
chain: T1 sequence with A176Q, G218A
notes: as for B1
B5: Methanothermobacter thermautotrophicus MCM protein, V214A mutant (enzyme, UniProt O27798 1-666, looked up)
chain: T1 sequence with A176Q, V214A
notes: as for B1
B6: 49-mer dsDNA (dsDNA)
DNA 1: GCAGATAACAGTTGTCCTGGAGAACGACCTGGTTGACACCCTCACACCC
DNA 2: GGGTGTGAGGGTGTCAACCAGGTCGTTCTCCAGGACAACTGTTATCTGC

Experiments:
[1] = molecular target: the molecule itself; experiment: SEC; 100 micrograms of protein on a superose-6 column (HR10/30); 20 mM Tris-HCl pH 7.5, 150 mM NaCl, 10% glycerol; 22°C, 0.2 ml/min; A280; size markers thyroglobulin, ferritin, albumin, ovalbumin
[2] = molecular target: T1, MCM Q176A; experiment: filter binding; 10 mM Mg2+, no ATP; 25 mM Hepes-NaOH pH 7.5, 2 mM DTT, 10 mM MgCl2, 100 ug/ml BSA, 50 fmol 32P-DNA in 20 ul, 10/30/90 nM MCM monomer (25 nM for the ATP test), 60 C, 10 min; nitrocellulose filter washed with 20 mM Tris-HCl pH 7.5; conditions: protein: recombinant; tags: C-terminal His6; chain copies: 6; label: 32P (T4 PNK, 5' end); blunt
[3] = molecular target: T2, MCM P210G; experiment: as above; conditions: protein: recombinant; tags: C-terminal His6; chain copies: 6; label: 32P (T4 PNK, 5' end); blunt
[4] = molecular target: T3, MCM G218A; experiment: as above; conditions: protein: recombinant; tags: C-terminal His6; chain copies: 6; label: 32P (T4 PNK, 5' end); blunt
[5] = molecular target: T4, MCM G211A; experiment: as above; conditions: protein: recombinant; tags: C-terminal His6; chain copies: 6; label: 32P (T4 PNK, 5' end); blunt

Row | Binder | binding result [1] | further results
1 | B1 | binds | –
2 | B2 | binds | –
3 | B3 | binds | –
4 | B4 | binds | –
5 | B5 | binds | –
6 | B6 | – | binding signal [2]: ~50 % reduction vs wild-type; binding signal [3]: ~50 % reduction vs wild-type; binding signal [4]: ~25 % reduction vs wild-type; binding signal [5]: ~50 % reduction vs wild-type
